B1: TRIM29 (parent)
chain: RKCPVHGKTMELFCQTDQTCICYL
B2: NETO1 (parent)
chain: KTSLLDQLTNTSGTVIGVTSCIVI

Variants of: B1
Assay: protein stability index of a GFP-peptide fusion (GPS, HEK-293T) (PSI 1-6); higher = more stable
Conditions: c terminus: a fixed tail appended
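Also: lentivirally expressed fusions sorted by FACS into six bins by GFP to DsRed ratio, PSI derived from sequencing read proportions per bin multiplied by bin number.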

Protein stability index: each site, then its substitutions
H6: V 2.44; W 1.96
G7: A 2.25; C 2.5; D 3.12; E 2.6; F 2.55; H 2.38; I 3.48; K 1.63; L 2.26; M 2.35; N 3.49; P 2.46; Q 3.09; S 2.57; T 2.46; V 2.04; W 1.4; Y 2.14
K8: A 2.58; C 1.85; D 1.94; E 2.59; F 2.24; G 1.59; H 2.83; I 1.59; L 1.37; M 2.45; N 2.56; P 1.48; Q 2; R 2.09; S 1.44; T 2.52; V 2.54; W 2.77; Y 1.23
T9: A 2.95; C 1.75; D 2.81; E 2.06; F 3.32; G 2.72; H 1.78; I 1.49; K 2.46; L 2.56; M 2.77; N 2.79; P 1.98; Q 1.77; R 1.21; S 3.03; V 2.41; W 2.42; Y 2.25
M10: A 1.87; C 1.94; D 2.44; E 1.46; F 2.58; G 1.65; H 2.43; I 3.45; K 2.02; L 1.99; N 2.14; P 2.35; Q 1.87; R 2.84; S 2.43; T 1.49; V 1.98; W 1.46; Y 1.83
E11: A 1.83; D 2.49; F 1.76; G 2.31; H 2.56; I 2.77; K 1.92; L 3.23; M 1.7; N 2.55; P 2.95; Q 1.47; R 2.14; S 2.85; T 2.66; V 2.9; W 2.41; Y 1.8
L12: A 2.21; C 2.81; D 2.81; E 1.53; F 1.61; G 1.68; H 2.66; I 2.47; K 1.46; M 2.98; N 1.99; P 2.08; R 1.99; S 2.65; T 1.58; V 2.87; W 1.08; Y 2.86
F13: A 1.78; C 2.23; E 2.47; G 2.93; H 2.5; I 2.89; K 2.99; L 2.04; M 3.16; N 2.72; P 2.4; Q 3.27; R 1.96; S 2.5; T 2.38; V 2.58; Y 2.32
C14: A 2.5; D 2.1; E 2.77; F 3.17; G 1.86; H 2.83; I 2.41; K 1.89; L 2.27; M 1.46; N 2.33; P 2; Q 2.03; R 2.5; S 2.35; T 3.06; V 1.47; W 1.89; Y 2.59
Q15: A 2.75; C 3.22; D 1.52; E 1.56; F 3.06; G 2.93; H 2.26; I 1.88; K 1.79; L 3.21; M 2.43; N 2; P 2.66; R 1.78; S 2.48; T 2.14; V 2.75; Y 1.92
T16: A 2.24; C 3.37; D 2.1; E 1.78; F 2.51; G 3.39; H 2.44; I 1.98; K 2.15; L 1.56; M 1.57; N 2.62; P 2.06; Q 2.91; R 1.91; S 2.34; V 2.6; W 2.17; Y 2.54
D17: A 2.19; C 2.08; E 3.12; F 1.49; G 2.73; H 1.89; I 1.79; K 1.52; L 3.97; M 1.93; N 1.7; P 2.04; Q 1.66; R 2.8; S 1.49; T 1.76; Y 2.92
Q18: A 1.73; C 2.22; D 1.79; E 2.75; F 2.71; G 2.79; H 2.18; K 3.94; L 2.11; M 2.12; N 1.82; P 2.7; R 1.97; S 1.68; T 2.36; V 2.65; W 1.56; Y 1.42
T19: A 3.62; C 2.66; D 1.6; E 2.4; F 1.88; G 2.42; H 2.95; I 3.16; K 2.44; L 1.59; M 2.51; N 2.16; P 2.35; Q 2.32; S 2.63; V 1.31; W 2.47; Y 1.89
C20: A 3.08; D 3.16; G 3.31; H 3.04; I 1.25; K 3.17; L 2.28; M 3.2; N 3.24; P 1.83; Q 3.07; R 2.38; S 2.56; V 1.27; W 2.42; Y 2.78
I21: A 2.77; C 3.49; D 4.33; E 4.47; F 2.86; G 3.1; H 2.98; K 2.02; L 1.73; M 2.36; N 2.52; P 2.44; Q 3.36; R 1.88; S 1.91; T 3; V 1.92; W 2.78; Y 3.25
C22: A 1.87; D 2.38; E 2.58; F 1.31; G 1.99; H 2.01; I 2.81; K 2.04; L 3.09; M 2.37; N 1.67; P 2.27; Q 2.02; R 1.99; S 2.46; T 2.16; V 2.9; W 1.23; Y 1.45
Y23: A 4.28; C 4.73; D 5.55; E 5.25; F 1.65; G 4.98; H 4.24; I 2.73; K 4.52; L 2.58; M 3.38; N 4.91; P 5.16; Q 4.28; R 3.95; S 4.29; T 4.17; V 2.66; W 1.59
L24: A 5.02; C 4.74; D 5.58; E 4.75; F 4.64; G 5.15; H 4.59; I 4.21; K 4.82; M 4.34; N 4.57; P 5.26; Q 5.07; R 4.89; S 5.39; T 5.36; V 4.34; W 4.47; Y 3.86

Variants of: B2
Assay: as above
Conditions: c terminus: a fixed tail appended

Protein stability index, by site and new letter:
K1: E 3.07; F 3.08; G 2.6
